Reference: the MegaScale stability set (Tsuboyama et al. 2023)

B1: 2M8U (parent)
chain: TKAQVIEAFKVFDRDGNGYVTVDYLRKVLNELGDMMPADEIEEMIYEADPQNSGYVQYETFVGMLFL
B2: EHEE_rd2_0196 (parent)
chain: TETRTFDSEEEAKKAQKEAEKQGRTVTITRRDDRWEVRFD

Variants of: B1
Assay: folding stability dG (cDNA display proteolysis); higher = more stable
Conditions: PBS, room temperature

| Variant | folding stability dG [kcal/mol] |
| --- | --- |
| FKAQVIEAFKVFDRDGNGYVTVDYLRKVLNELGDMMPADEIEEMIYEADPQNSGYVQYETFVGMLFL | 2.91 |
| CKAQVIEAFKVFDRDGNGYVTVDYLRKVLNELGDMMPADEIEEMIYEADPQNSGYVQYETFVGMLFL | 3.76 |
| GKAQVIEAFKVFDRDGNGYVTVDYLRKVLNELGDMMPADEIEEMIYEADPQNSGYVQYETFVGMLFL | 2.88 |
| KKAQVIEAFKVFDRDGNGYVTVDYLRKVLNELGDMMPADEIEEMIYEADPQNSGYVQYETFVGMLFL | 3.48 |
| EKAQVIEAFKVFDRDGNGYVTVDYLRKVLNELGDMMPADEIEEMIYEADPQNSGYVQYETFVGMLFL | 2.94 |
| IKAQVIEAFKVFDRDGNGYVTVDYLRKVLNELGDMMPADEIEEMIYEADPQNSGYVQYETFVGMLFL | 3.61 |
| HKAQVIEAFKVFDRDGNGYVTVDYLRKVLNELGDMMPADEIEEMIYEADPQNSGYVQYETFVGMLFL | 3.16 |
| DKAQVIEAFKVFDRDGNGYVTVDYLRKVLNELGDMMPADEIEEMIYEADPQNSGYVQYETFVGMLFL | 2.96 |
| AKAQVIEAFKVFDRDGNGYVTVDYLRKVLNELGDMMPADEIEEMIYEADPQNSGYVQYETFVGMLFL | 3.13 |
| MKAQVIEAFKVFDRDGNGYVTVDYLRKVLNELGDMMPADEIEEMIYEADPQNSGYVQYETFVGMLFL | 3.21 |
| LKAQVIEAFKVFDRDGNGYVTVDYLRKVLNELGDMMPADEIEEMIYEADPQNSGYVQYETFVGMLFL | 3.3 |

Variants of: B2
Assay: as above
Conditions: PBS, room temperature

| Variant | folding stability dG [kcal/mol] |
| --- | --- |
| TETRTFDSEEEAKKAQKEAEKQGRTVTITRRDDRWEVRFI | 3.13 |
| TETRTFDSEEEAKKAQKEAEKQGRTVTITRRDDRWEVRFA | 2.97 |
| TETRTFDSEEEAKKAQKEAEKQGRTVTITRRDDRWEVRFH | 2.98 |
| TETRTFDSEEEAKKAQKEAEKQGRTVTITRRDDRWEVRFP | 2.3 |
| TETRTFDSEEEAKKAQKEAEKQGRTVTITRRDDRWEVRFF | 2.85 |
| TETRTFDSEEEAKKAQKEAEKQGRTVTITRRDDRWEVRFQ | 2.92 |
| TETRTFDSEEEAKKAQKEAEKQGRTVTITRRDDRWEVRFL | 3.05 |
| TETRTFDSEEEAKKAQKEAEKQGRTVTITRRDDRWEVRFK | 2.3 |
| TETRTFDSEEEAKKAQKEAEKQGRTVTITRRDDRWEVRFY | 2.8 |
| TETRTFDSEEEAKKAQKEAEKQGRTVTITRRDDRWEVRFN | 2.88 |
| TETRTFDSEEEAKKAQKEAEKQGRTVTITRRDDRWEVRFE | 3.28 |
| TETRTFDSEEEAKKAQKEAEKQGRTVTITRRDDRWEVRFW | 2.89 |
| TETRTFDSEEEAKKAQKEAEKQGRTVTITRRDDRWEVRFM | 3.01 |
| TETRTFDSEEEAKKAQKEAEKQGRTVTITRRDDRWEVRFV | 3.21 |
| TETRTFDSEEEAKKAQKEAEKQGRTVTITRRDDRWEVRFG | 2.95 |
| TETRTFDSEEEAKKAQKEAEKQGRTVTITRRDDRWEVRFR | 2.42 |
| TETRTFDSEEEAKKAQKEAEKQGRTVTITRRDDRWEVRFS | 3.13 |
| TETRTFDSEEEAKKAQKEAEKQGRTVTITRRDDRWEVRFT | 3.15 |
| TETRTFDSEEEAKKAQKEAEKQGRTVTITRRDDRWEVRHD | 1.93 |
| TETRTFDSEEEAKKAQKEAEKQGRTVTITRRDDRWEVRRD | 1.35 |
| TETRTFDSEEEAKKAQKEAEKQGRTVTITRRDDRWEVRQD | 2.02 |
| TETRTFDSEEEAKKAQKEAEKQGRTVTITRRDDRWEVRSD | 2.46 |

| Variant | folding stability dG [kcal/mol] |
| --- | --- |
| TETRTFDSEEEAKKAQKEAEKQGRTVTITRRDDRWEVRGD | 1.87 |
| TETRTFDSEEEAKKAQKEAEKQGRTVTITRRDDRWEVRID | 3.35 |
| TETRTFDSEEEAKKAQKEAEKQGRTVTITRRDDRWEVRPD | 2.06 |
| TETRTFDSEEEAKKAQKEAEKQGRTVTITRRDDRWEVRMD | 2.96 |
| TETRTFDSEEEAKKAQKEAEKQGRTVTITRRDDRWEVRTD | 2.48 |
| TETRTFDSEEEAKKAQKEAEKQGRTVTITRRDDRWEVRVD | 2.93 |
| TETRTFDSEEEAKKAQKEAEKQGRTVTITRRDDRWEVRAD | 2.34 |
| TETRTFDSEEEAKKAQKEAEKQGRTVTITRRDDRWEVRCD | 2.14 |
| TETRTFDSEEEAKKAQKEAEKQGRTVTITRRDDRWEVRED | 2.52 |
| TETRTFDSEEEAKKAQKEAEKQGRTVTITRRDDRWEVRLD | 2.74 |
| TETRTFDSEEEAKKAQKEAEKQGRTVTITRRDDRWEVRND | 1.81 |
| TETRTFDSEEEAKKAQKEAEKQGRTVTITRRDDRWEVRDD | 2.51 |
| TETRTFDSEEEAKKAQKEAEKQGRTVTITRRDDRWEVRWD | 2.94 |
| TETRTFDSEEEAKKAQKEAEKQGRTVTITRRDDRWEVRYD | 3.15 |
| TETRTFDSEEEAKKAQKEAEKQGRTVTITRRDDRWEVRKD | 1.29 |
| TETRTFDSEEEAKKAQKEAEKQGRTVTITRRDDRWLVRFD | 2.46 |
| TETRTFDSEEEAKKAQKEAEKQGRTVTITRRDDRWIVRFD | 2.99 |
| TETRTFDSEEEAKKAQKEAEKQGRTVTITRRDDRWHVRFD | 2.08 |
| TETRTFDSEEEAKKAQKEAEKQGRTVTITRRDDRWWVRFD | 1.94 |
| TETRTFDSEEEAKKAQKEAEKQGRTVTITRRDDRWFVRFD | 2.5 |
| TETRTFDSEEEAKKAQKEAEKQGRTVTITRRDDRWVVRFD | 2.89 |
| TETRTFDSEEEAKKAQKEAEKQGRTVTITRRDDRWDVRFD | 2.06 |

| Variant | folding stability dG [kcal/mol] |
| --- | --- |
| TETRTFDSEEEAKKAQKEAEKQGRTVTITRRDDRWYVRFD | 2.57 |
| TETRTFDSEEEAKKAQKEAEKQGRTVTITRRDDRWNVRFD | 1.15 |
| TETRTFDSEEEAKKAQKEAEKQGRTVTITRRDDRWQVRFD | 1.95 |
| TETRTFDSEEEAKKAQKEAEKQGRTVTITRRDDRWTVRFD | 1.74 |
| TETRTFDSEEEAKKAQKEAEKQGRTVTITRRDDRWRVRFD | 1.08 |
| TETRTFDSEEEAKKAQKEAEKQGRTVTITRRDDRWMVRFD | 2.06 |
| TETRTFDSEEEAKKAQKEAEKQGRTVTITRRDDRWGVRFD | 0.645 |
| TETRTFDSEEEAKKAQKEAEKQGRTVTITRRDDRWAVRFD | 1.32 |
| TETRTFDSEEEAKKAQKEAEKQGRTVTITRRDDRWSVRFD | 1.19 |
| TETRTFDSEEEAKKAQKEAEKQGRTVTITRRDDRWKVRFD | 0.851 |
| TETRTFDSEEEAKKAQKEAEKQGRTVTITRRDDRYEVRFD | 2.08 |
| TETRTFDSEEEAKKAQKEAEKQGRTVTITRRDDRHEVRFD | 0.529 |
| TETRTFDSEEEAKKAQKEAEKQGRTVTITRRDDRTEVRFD | 0.4 |
| TETRTFDSEEEAKKAQKEAEKQGRTVTITRRDDRFEVRFD | 2.18 |
| TETRTFDSEEEAKKAQKEAEKQGRTVTITRRDDRPEVRFD | 0.441 |
| TETRTFDSEEEAKKAQKEAEKQGRTVTITRRDDREEVRFD | 0.481 |
| TETRTFDSEEEAKKAQKEAEKQGRTVTITRRDDRGEVRFD | 0.36 |
| TETRTFDSEEEAKKAQKEAEKQGRTVTITRRDDRNEVRFD | 0.396 |
| TETRTFDSEEEAKKAQKEAEKQGRTVTITRRDDRIEVRFD | 1.2 |
| TETRTFDSEEEAKKAQKEAEKQGRTVTITRRDDRLEVRFD | 0.862 |
| TETRTFDSEEEAKKAQKEAEKQGRTVTITRRDDRDEVRFD | 0.578 |
| TETRTFDSEEEAKKAQKEAEKQGRTVTITRRDDRVEVRFD | 0.758 |

| Variant | folding stability dG [kcal/mol] |
| --- | --- |
| TETRTFDSEEEAKKAQKEAEKQGRTVTITRRDDRMEVRFD | 0.562 |
| TETRTFDSEEEAKKAQKEAEKQGRTVTITRRDDRQEVRFD | 0.348 |
| TETRTFDSEEEAKKAQKEAEKQGRTVTITRRDDRAEVRFD | 0.417 |
| TETRTFDSEEEAKKAQKEAEKQGRTVTITRRDDRKEVRFD | 0.058 |
| TETRTFDSEEEAKKAQKEAEKQGRTVTITRRDDRSEVRFD | 0.473 |
| TETRTFDSEEEAKKAQKEAEKQGRTVTITRRDDRREVRFD | 0.21 |
| TETRTFDSEEEAKKAQKEAEKQGRTVTITRRDDRWEVFFD | 2.33 |
| TETRTFDSEEEAKKAQKEAEKQGRTVTITRRDDRWEVAFD | 2.8 |
| TETRTFDSEEEAKKAQKEAEKQGRTVTITRRDDRWEVEFD | 2.68 |
| TETRTFDSEEEAKKAQKEAEKQGRTVTITRRDDRWEVVFD | 3.02 |
| TETRTFDSEEEAKKAQKEAEKQGRTVTITRRDDRWEVNFD | 2.73 |
| TETRTFDSEEEAKKAQKEAEKQGRTVTITRRDDRWEVIFD | 3.05 |
| TETRTFDSEEEAKKAQKEAEKQGRTVTITRRDDRWEVTFD | 3.15 |
| TETRTFDSEEEAKKAQKEAEKQGRTVTITRRDDRWEVSFD | 3 |
| TETRTFDSEEEAKKAQKEAEKQGRTVTITRRDDRWEVYFD | 2.24 |
| TETRTFDSEEEAKKAQKEAEKQGRTVTITRRDDRWEVHFD | 3.04 |
| TETRTFDSEEEAKKAQKEAEKQGRTVTITRRDDRWEVWFD | 2.17 |
| TETRTFDSEEEAKKAQKEAEKQGRTVTITRRDDRWEVDFD | 2.18 |
| TETRTFDSEEEAKKAQKEAEKQGRTVTITRRDDRWEVKFD | 2.96 |
| TETRTFDSEEEAKKAQKEAEKQGRTVTITRRDDRWEVQFD | 2.85 |
| TETRTFDSEEEAKKAQKEAEKQGRTVTITRRDDRWEVGFD | 2.1 |
| TETRTFDSEEEAKKAQKEAEKQGRTVTITRRDDRWEVLFD | 2.69 |

| Variant | folding stability dG [kcal/mol] |
| --- | --- |
| TETRTFDSEEEAKKAQKEAEKQGRTVTITRRDDRWEVPFD | 0.679 |
| TETRTFDSEEEAKKAQKEAEKQGRTVTITRRDDRWEVMFD | 2.74 |
| TETRTFDSEEEAKKAQKEAEKQGRTVTITRRDDRWEGRFD | 1.09 |
| TETRTFDSEEEAKKAQKEAEKQGRTVTITRRDDRWELRFD | 2.83 |
| TETRTFDSEEEAKKAQKEAEKQGRTVTITRRDDRWEFRFD | 1.02 |
| TETRTFDSEEEAKKAQKEAEKQGRTVTITRRDDRWETRFD | 1.31 |
| TETRTFDSEEEAKKAQKEAEKQGRTVTITRRDDRWEHRFD | 0.212 |
| TETRTFDSEEEAKKAQKEAEKQGRTVTITRRDDRWEMRFD | 2.17 |
| TETRTFDSEEEAKKAQKEAEKQGRTVTITRRDDRWEDRFD | 0.415 |
| TETRTFDSEEEAKKAQKEAEKQGRTVTITRRDDRWESRFD | 0.483 |
| TETRTFDSEEEAKKAQKEAEKQGRTVTITRRDDRWEWRFD | -0.006 |
| TETRTFDSEEEAKKAQKEAEKQGRTVTITRRDDRWENRFD | 0.539 |
| TETRTFDSEEEAKKAQKEAEKQGRTVTITRRDDRWEQRFD | 0.384 |
| TETRTFDSEEEAKKAQKEAEKQGRTVTITRRDDRWERRFD | -0.375 |
| TETRTFDSEEEAKKAQKEAEKQGRTVTITRRDDRWEKRFD | 0.375 |
| TETRTFDSEEEAKKAQKEAEKQGRTVTITRRDDRWEARFD | 1.89 |
| TETRTFDSEEEAKKAQKEAEKQGRTVTITRRDDRWEIRFD | 2.65 |
| TETRTFDSEEEAKKAQKEAEKQGRTVTITRRDDRWEYRFD | 0.443 |
| TETRTFDSEEEAKKAQKEAEKQGRTVTITRRDDRWEERFD | 0.37 |
| TETRTFDSEEEAKKAQKEAEKQGRTVTITRRDDRWECRFD | 1.8 |
| TETRTFDSEEEAKKAQKEAEKQGRTVTITRRDDRWEPRFD | 0.552 |
